According to patent US20220145295A1, “ENZYMATIC RNA SYNTHESIS” (President and Fellows of Harvard College, priority 2018, published 2022):

Test system: poly dT-15-mer initiator oligonucleotide
Assay: Initial activity screen of polymerase μ R387K with divalent cations (rate of ssDNA generation)
Type: biochemical
Settings: 200 μM dNTP, 37° C.
Method: FIGS. 3A to 3C. […] Denaturing gel electrophoresis analysis of dATP incorporation (FIG. 3B) and rATP incorporation (FIG. 3C) at nucleotide concentrations of 200-50 μM and 5.0-0.62 mM for dATP and rATP, respectively. These reactions were supplemented with 0.25 mM Mn^2+ and Mg^2+. The control reaction consisted of all reaction components except nucleotide. For all reactions, the initiator oligonucleotide was a HPLC-purified poly dT-15-mer.
Human polymerase μ R387K was expressed and purified as described in the materials and methods. Because it was unknown under which reaction conditions polymerase μ R387K functioned optimally, several reaction parameters were initially evaluated. […] Thus, polymerase p R387K, a confirmed DNA/RNA-directed polymerase, is useful for controlled enzymatic RNA synthesis.
Expressed proteins with terminal transferase activity were screened by determining the rate of RNA generation in terms of total RNA concentration and the length/distribution of RNA produced by the protein after incubation with natural rNTPs. […] The length of the RNA produced in these reactions was determined by comparing products to a 100-nt ssDNA ladder (Simplex Biosciences) using a 15% TBE-Urea denaturing gel (Thermo EC6885) following the manufacturer's protocol. […]

B1: polymerase μ R387K: Human polymerase μ with point mutation R387K, expressed and purified; SEQ ID NO: 1 (protein, listed as Homo sapiens)
chain: MLPKRRRARVGSPSGDAASSTPPSTRFPGVAIYLVEPRMGRSRRAFLTGLARSKGFRVLDACSSEATHVVMEETSAEEAVSWQERRMAAAPPGCTPPALLDISWLTESLGAGQPVPVECRHRLEVAGPRKGPLSPAWMPAYACQRPTPLTHHNTGLSEALEILAEAAGFEGSEGRLLTFCRAASVLKALPSPVTTLSQLQGLPHFGEHSSRVVQELLEHGVCEEVERVRRSERYQTMKLFTQIFGVGVKTADRWYREGLRTLDDLREQPQKLTQQQKAGLQHHQDLSTPVLRSDVDALQQVVEEAVGQALPGATVTLTGGFRRGKLQGHDVDFLITHPKEGQEAGLLPRVMCRLQDQGLILYHQHQHSCCESPTRLAQQSHMDAFEKSFCIFRLPQPPGAAVGGSTRPCPSWKAVRVDLVVAPVSQFPFALLGWTGSKLFQRELRRFSRKEKGLWLNSHGLFDPEQKTFFQAASEEDIFRHLGLEYLPPEQRNA
rate of ssDNA generation (0.25 mM Co^2+, worst rate): ~100 RFU/minute
rate of ssDNA generation (combination of Mn^2+ and Mg^2+ at 0.25 mM, highest rate): ~650 RFU/minute
